Assay [1] addresses T1, human TNFR2 on the surface of CHO-TNFR2 cells (human, UniProt P20333 23-461).
T1 construct: whole, on cells
T1 sequence (looked up): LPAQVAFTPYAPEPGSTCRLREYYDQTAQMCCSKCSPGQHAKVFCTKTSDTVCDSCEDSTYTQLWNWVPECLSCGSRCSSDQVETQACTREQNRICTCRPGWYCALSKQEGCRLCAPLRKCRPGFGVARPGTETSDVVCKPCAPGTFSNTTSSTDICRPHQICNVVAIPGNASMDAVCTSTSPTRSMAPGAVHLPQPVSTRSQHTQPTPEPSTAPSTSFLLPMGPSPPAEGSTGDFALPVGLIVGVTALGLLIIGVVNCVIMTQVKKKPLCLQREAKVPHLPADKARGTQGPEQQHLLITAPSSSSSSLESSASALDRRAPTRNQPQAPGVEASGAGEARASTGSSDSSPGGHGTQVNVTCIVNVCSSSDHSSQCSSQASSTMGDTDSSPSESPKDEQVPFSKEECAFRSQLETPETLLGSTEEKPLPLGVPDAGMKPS
As to the kind of experiment: flow cytometry on CHO-TNFR2 cells; EC50 against 001-WT. The procedure:
The transfected full-length plasmid of human TNFR2 was purchased from Sino Biological (Cat #HG10417-UT, NCBI Ref Seq: NM_001066.2). The experiment was conducted at a cell density within 80%. The cell medium was discarded; the cells were rinsed with PBS, and digested with 1 ml trypsin for 2 minutes; the digestion was stopped with a Ham's F12 complete medium containing 10% FBS, and then a cell suspension was made. The cell suspension was counted, and then an appropriate amount of cell suspension was centrifuged at 350×g; the supernatant was discarded; a corresponding volume of blocking solution (10% FBS+PBS) at a density of 1×10⁷ cells/ml was added to resuspend the cells, and the mixture was incubated at 4° C. for 30 minutes. After the incubation, the mixture was centrifuged at 350×g to remove the supernatant, and the cells were resuspended in a staining buffer (2% FBS+PBS) to a density of 2×10⁶ cells/ml, and spread onto a 96-well plate, with 50 μl of cell suspension added to each well for later use. The antibody was diluted with PBS for 10-fold gradient dilution from the highest concentration of 20 μg/m (twice the concentration); the diluted antibody was added to the well containing 50 μl of cell suspension, and placed on a microplate shaker for shaking at 500 rpm for 1 minute, so that the antibody was fully mixed with the cells; the mixture was incubated at 4° C. for 1 h. After the incubation, the cells were washed twice with the staining buffer, with 100 μl per well, and centrifuged at 350-g for 5 minutes, and the supernatant was discarded. The PE goat anti-Human IgG Fc antibody (ebioscience, Cat #12-4998-82) was diluted 250-fold with the staining buffer, with a volume of 100 μl per well added to the washed cell wells; the mixture was mixed evenly, and stained at 4° C. for 30 minutes. After the staining, similarly, the cells were washed twice with the staining buffer; finally, the cells were resuspended in 200 μl of staining buffer; signals were detected by a flow cytometer (Thermo Attune NxT). The stronger the signal, the stronger the binding ability of an antibody to TNFR2. The binding curve of an antibody was drawn with antibody concentration as the abscissa and corresponding mean fluorescence intensity (MFI) fold as the ordinate, and fitted with four parameters (GraphPad Prism9) to calculate the EC50 value.
In general terms: Flow cytometry measures light scatter and fluorescence of single cells or particles in a stream.

In assay [2] the target is T2, human TNFR2 (Novoprotein, Cat #C830) (human, UniProt P20333 23-257, limits assumed).
T2 construct: construct not described; also called human TNFR2 protein
T2 sequence (looked up): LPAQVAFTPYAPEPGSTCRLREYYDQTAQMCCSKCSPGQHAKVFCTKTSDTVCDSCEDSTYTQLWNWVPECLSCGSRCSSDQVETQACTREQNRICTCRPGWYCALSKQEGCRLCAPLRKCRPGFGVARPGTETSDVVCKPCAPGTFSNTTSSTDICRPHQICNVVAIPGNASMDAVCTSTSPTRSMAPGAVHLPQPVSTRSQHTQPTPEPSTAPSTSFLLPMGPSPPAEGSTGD
As to the kind of experiment: competition ELISA, competitor human TNFα-Biotin; IC50 against 001-WT. The procedure:
1 μg/ml human TNFR2 (Novoprotein, Cat #C830) was pre-coated with 100 μl/well […] in an ELISA plate. All the test TNFR2 antibodies were subjected to 2.5-fold gradient dilution from the highest concentration of 30 μg/ml; the diluted antibodies were mixed with 15 ng/ml human TNFα-Biotin (Acro Biosystem, Cat #TNA-H82E3) in equal volume, respectively; the resulting mixture was added to the ELISA plate at 100 μl/well, and incubated with shaking at room temperature for 2.0 hours. The plate was washed, and then a Streptavidin-HRP working solution (diluted at 1:10000) was added at 100 μl/well, and the mixture was incubated with shaking at room temperature for 40 minutes. The plate was washed again, and then the substrate TMB of HRP was added to develop colour. A stop solution was added to stop the reaction, and then a microplate reader (MD 13) was used to read the absorbance value. The inhibitory curve of an antibody was drawn with antibody concentration as the abscissa and corresponding OD value as the ordinate, and fitted with four parameters (GraphPad Prism9) to calculate the IC50 value. The smaller the IC50 value, the stronger the ability of an antibody to inhibit the binding of human TNFα to human TNFR2. The blocking effect of a humanized antibody was normalized to its corresponding human-murine chimeric antibody WT. The higher the percentage value, the better the inhibitory effect of the humanized antibody.
On the technique in general: In an ELISA, binding on a coated surface is turned into a signal by an enzyme label.

B1: 001-Hu5 (antibody, V domains shown)
VH: EVQLVESGGGLVQPGGSLRLSCAASGFAFSTYDLSWVRQAPGKGLEWVAYINNGGISTYYSDTVKGRFTISRDNAKNTLYLQMNSLRAEDTAVYYCVRGPFYGSANYFDYWGQGTLVTVSS
VL: DIQMTQSPSSLSASVGDRVTITCRTSESIYSNLPWYQQKPGKSPKLLVYDATKLAEGVPSRFSGSGSGTDYTLTISSLQPEDFATYYCQHFWVTPWTFGQGTKVEIK
notes: Humanized form of #001; also called VH1 + VL4
On to B1, for which the “% Relative activity (WT antibody/test antibody)” value in assay [1] is 123%; in assay [2], 96.5%.

B2: 001-Hu3 (antibody, V domains shown)
VH: EVQLVESGGGLVQPGGSLRLSCAASGFAFSTYDLSWVRQAPGKGLEWVAYINNGGISTYYSDTVKGRFTISRDNAKNTLYLQMNSLRAEDTAVYYCVRGPFYGSANYFDYWGQGTLVTVSS
VL: DIQMTQSPSSLSASVGDRVTITCRTSESIYSNLPWYQQKPGKAPKLLIYDATKLAEGVPSRFSGSGSGTDYTLTISSLQPEDFATYYCQHFWVTPWTFGQGTKVEIK
notes: Humanized form of #001; also called VH1 + VL3
On to B2, for which the “% Relative activity (WT antibody/test antibody)” value came out at 101% in assay [1] and 105% in assay [2].

B3: 001-Hu4 (antibody, V domains shown)
VH: EVQLVESGGGLVQPGGSLRLSCAASGFAFSTYDLSWVRQAPGKGLEWVAYINNGGISTYYSDTVKGRFTISRDNAKNSLYLQMNSLRAEDTAVYYCVRGPFYGSANYFDYWGQGTLVTVSS
VL: DIQMTQSPSSLSASVGDRVTITCRTSESIYSNLPWYQQKPGKSPKLLVYDATKLAEGVPSRFSGSGSGTDYTLTISSLQPEDFATYYCQHFWVTPWTFGQGTKVEIK
notes: Humanized form of #001; also called VH2 + VL4
Turning to B3, the entries for the “% Relative activity (WT antibody/test antibody)” value in assay [1] and in assay [2] were 129% and 105%, respectively.

B4: 001-Hu2 (antibody, V domains shown)
VH: EVQLVESGGGLVQPGGSLRLSCAASGFAFSTYDLSWVRQAPGKGLEWVAYINNGGISTYYSDTVKGRFTISRDNAKNSLYLQMNSLRAEDTAVYYCVRGPFYGSANYFDYWGQGTLVTVSS
VL: DIQMTQSPSSLSASVGDRVTITCRTSESIYSNLPWYQQKPGKSPKLLIYDATKLAEGVPSRFSGSGSGTDFTLTISSLQPEDFATYYCQHFWVTPWTFGQGTKVEIK
notes: Humanized form of #001; also called VH2 + VL2
With B4, the figures for the “% Relative activity (WT antibody/test antibody)” value in assay [1] and in assay [2] were 48% and 82.8%, respectively.

B5: 001-Hu1 (antibody, V domains shown)
VH: EVQLVESGGGLVQPGGSLRLSCAASGFAFSTYDLSWVRQAPGKGLEWVAYINNGGISTYYSDTVKGRFTISRDNAKNTLYLQMNSLRAEDTAVYYCVRGPFYGSANYFDYWGQGTLVTVSS
VL: DIQMTQSPSSLSASVGDRVTITCRTSESIYSNLPWYQQKPGKAPKLLLYDATKLAEGVPSRFSGSGSGTDYTLTISSLQPEDFATYYCQHFWVTPWTFGQGTKVEIK
notes: Humanized form of #001; also called VH1 + VL1
With B5, the “% Relative activity (WT antibody/test antibody)” value in assay [1] stood at 78%; in assay [2], 94.7%.

For the origin of these results see US20240109974A1 (SHANDONG SIMCERE BIOPHARMACEUTICAL, published 2024).
